The source of these data is patent publication US6291645.

This assay concerns the target GST.119-224 (glutathione S-transferase fusion protein of the SH2 domain, residues 119-224, of p56^lck) (not provided). The assay can be described thus: competition of peptide with p62 in the GST.119-224 pull-down from HeLa lysate.

As for “pY324 phosphotyrosyl peptide (derived from polyoma middle T antigen)”, the concentration that competed away p62 binding worked out at 1 mM.
For the substance “pY505 phosphotyrosyl peptide (derived from the C-terminal negative regulatory region of p56^lck)”, the concentration that competed away p62 binding was determined as 15 mM.
